Drawing on paper PMC9712776 (2022), this text covers ratio to parent for two variants.

B1: dynamin-2 (human Dyn2 isoform 1), wild type [human] / GST-tagged SH3 domain of endophilin [mouse] (parent complex)
chain 1: MGNRGMEELIPLVNKLQDAFSSIGQSCHLDLPQIAVVGGQSAGKSSVLENFVGRDFLPRGSGIVTRRPLILQLIFSKTEHAEFLHCKSKKFTDFDEVRQEIEAETDRVTGTNKGISPVPINLRVYSPHVLNLTLIDLPGITKVPVGDQPPDIEYQIKDMILQFISRESSLILAVTPANMDLANSDALKLAKEVDPQGLRTIGVITKLDLMDEGTDARDVLENKLLPLRRGYIGVVNRSQKDIEGKKDIRAALAAERKFFLSHPAYRHMADRMGTPHLQKTLNQQLTNHIRESLPALRSKLQSQLLSLEKEVEEYKNFRPDDPTRKTKALLQMVQQFGVDFEKRIEGSGDQVDTLELSGGARINRIFHERFPFELVKMEFDEKDLRREISYAIKNIHGVRTGLFTPDLAFEAIVKKQVVKLKEPCLKCVDLVIQELINTVRQCTSKLSSYPRLREETERIVTTYIREREGRTKDQILLLIDIEQSYINTNHEDFIGFANAQQRSTQLNKKRAIPNQGEILVIRRGWLTINNISLMKGGSKEYWFVLTAESLSWYKDEEEKEKKYMLPLDNLKIRDVEKGFMSNKHVFAIFNTEQRNVYKDLRQIELACDSQEDVDSWKASFLRAGVYPEKDQAENEDGAQENTFSMDPQLERQVETIRNLVDSYVAIINKSIRDLMPKTIMHLMINNTKAFIHHELLAYLYSSADQSSLMEESADQAQRRDDMLRMYHALKEALNIIGDISTSTVSTPVPPPVDDTWLQSASSHSPTPQRRPVSSIHPPGRPPAVRGPTPGPPLIPVPVGAAASFSAPPIPSRPGPQSVFANSDLFPAPPQIPSRPVRIPPGIPPGVPSRRPPAAPSRPTIIRPAEPSLLD
chain 2: not shown

Variants of B1 are the subject of the assay. Kind of assay: GST pulldown; 12 µg GST-endophilin-SH3, 6 µg purified Dyn2; parent: 1; read off a plot.
On to chain 1 S848E, for which the ratio to parent was roughly 0.93. The value for chain 1 S848A was roughly 1.1.
